Molecular target: T1, IRF-3, endogenous in SeV-infected 293T cells (phosphorylated) (human (endogenous in 293T)), Q14653
T1 chain: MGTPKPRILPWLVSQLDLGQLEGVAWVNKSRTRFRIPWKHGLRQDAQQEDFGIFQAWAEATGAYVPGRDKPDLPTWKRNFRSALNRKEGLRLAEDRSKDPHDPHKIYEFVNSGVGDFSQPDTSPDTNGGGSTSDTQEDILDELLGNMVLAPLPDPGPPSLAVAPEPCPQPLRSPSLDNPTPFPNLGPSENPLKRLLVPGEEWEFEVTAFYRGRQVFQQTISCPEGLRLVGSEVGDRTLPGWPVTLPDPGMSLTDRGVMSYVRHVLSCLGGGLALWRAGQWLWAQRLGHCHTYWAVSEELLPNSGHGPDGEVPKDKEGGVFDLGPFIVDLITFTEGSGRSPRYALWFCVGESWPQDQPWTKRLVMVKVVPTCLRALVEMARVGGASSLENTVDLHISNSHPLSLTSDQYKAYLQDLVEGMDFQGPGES
Assay: native gel or EMSA; native PAGE (7.5% gel, 0.2% sodium deoxycholate in the upper chamber buffer) of total lysates of 293T and 293T DDX3KO cells infected with SeV for the indicated times; immunoblot for IRF-3
Details: remark: other sources report otherwise

stoichiometry N: 2
B1: IRF-3, endogenous in SeV-infected 293T cells (phosphorylated), Q14653 1-427 (natural protein)
chain: T1 chain
modifications: here or on the partner: phosphorylation detected with phospho-specific antibody (S396); mobility retardation suggesting phosphorylation at multiple sites; phosphorylation detected with phospho-specific antibody (S396); mobility retardation suggesting phosphorylation at multiple sites

— publication PMC8913847
